# Assay results published in PMC9352680, “A comprehensive thermodynamic model for RNA binding by the Saccharomyces cerevisiae Pumilio protein PUF4”.
# T1: PUF4 RNA-binding domain (Saccharomyces cerevisiae, UniProt P25339 537-888)
# T1 sequence: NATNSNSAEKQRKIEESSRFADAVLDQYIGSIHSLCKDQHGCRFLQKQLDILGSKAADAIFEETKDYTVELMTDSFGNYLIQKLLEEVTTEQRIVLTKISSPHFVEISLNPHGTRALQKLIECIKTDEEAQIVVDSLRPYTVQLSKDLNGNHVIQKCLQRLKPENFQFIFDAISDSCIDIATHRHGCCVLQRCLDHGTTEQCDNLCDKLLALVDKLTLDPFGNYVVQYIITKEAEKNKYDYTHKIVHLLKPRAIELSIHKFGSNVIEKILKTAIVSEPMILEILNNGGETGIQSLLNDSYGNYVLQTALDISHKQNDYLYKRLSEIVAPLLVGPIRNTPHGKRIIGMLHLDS
# Biological target: T1, PUF4 RNA-binding domain
# Assay: Mg; RNA-MaP; 20 mM Na-HEPES pH 7.4, 30 mM KOAc, 0.75 mM MgCl2, 0.1% Tween-20, 5% glycerol, 0.1 mg/mL BSA, 2 mM DTT; 25 C; 0.0125-409.6 nM protein
# Conditions: tags: N-His6-TEV cleaved; C-SNAP kept, Cy3B-labelled; label: tethered on chip by stalled RNA polymerase
row,Binder,Kd [nM]
1,UCUCUUCUUAUAUUAUCUCUU (ssRNA) [Ib_S1_P4E.1_K4.1_C4.1_H4.1_[T1C]_[G2T]_A4.1_F4.1_T4.1],685
2,Id_i_S2_P3E.5_K3.1_C3.3_[T-3C]_[C-2T]_[T-1A]_H3.1_A3.1_F3.1_T3.2 (ssRNA) RNA: UUUGAUUAAUAUGAUAUCGUUCUUUCUCUAUGUAUAUAUAUUCUUUCUCGAUAUCAUAUUAAUCUUU,3.83
3,Id_i_S2_P3E.7_K3.3_C3.3_[T-3A]_[C-2T]_[T-1G]_H3.3_A3.1_F3.1_T3.2 (ssRNA) RNA: UUUGAUUAAUAUGAUAUCGUUCUUUCUAUGACACUAUAUAUUCUUUCUCGAUAUCAUAUUAAUCUUU,597
4,Id_i_S2_P3E.5_K3.1_C3.3_[T-3A]_[C-2A]_[T-1C]_H3.1_A3.1_F3.1_T3.2 (ssRNA) RNA: UUUGAUUAAUAUGAUAUCGUUCUUUCUAACUGUAUAUAUAUUCUUUCUCGAUAUCAUAUUAAUCUUU,1.39
5,Id_i_S2_P3E.5_K3.1_C3.3_[T-3C]_[C-2A]_[T-1C]_H3.1_A3.1_F3.1_T3.2 (ssRNA) RNA: UUUGAUUAAUAUGAUAUCGUUCUUUCUCACUGUAUAUAUAUUCUUUCUCGAUAUCAUAUUAAUCUUU,1.09
6,Id_i_S2_P3E.6_K3.2_C3.3_[T-3C]_[C-2A]_[T-1C]_H3.2_A3.1_F3.1_T3.2 (ssRNA) RNA: UUUGAUUAAUAUGAUAUCGUUCUUUCUCACUAUAUAUAUAUUCUUUCUCGAUAUCAUAUUAAUCUUU,68.5
7,Id_i_S2_P3E.6_K3.2_C3.3_[T-3C]_[C-2T]_[T-1C]_H3.2_A3.1_F3.1_T3.2 (ssRNA) RNA: UUUGAUUAAUAUGAUAUCGUUCUUUCUCUCUAUAUAUAUAUUCUUUCUCGAUAUCAUAUUAAUCUUU,35
8,Id_i_S2_P3E.6_K3.2_C3.3_[T-3C]_[C-2G]_[T-1C]_H3.2_A3.1_F3.1_T3.2 (ssRNA) RNA: UUUGAUUAAUAUGAUAUCGUUCUUUCUCGCUAUAUAUAUAUUCUUUCUCGAUAUCAUAUUAAUCUUU,68.2
9,Id_i_S2_P3E.5_K3.1_C3.3_[T-3A]_[C-2G]_[T-1C]_H3.1_A3.1_F3.1_T3.2 (ssRNA) RNA: UUUGAUUAAUAUGAUAUCGUUCUUUCUAGCUGUAUAUAUAUUCUUUCUCGAUAUCAUAUUAAUCUUU,2.13
10,Id_i_S2_P3E.7_K3.3_C3.3_[T-3C]_[C-2A]_[T-1A]_H3.3_A3.1_F3.1_T3.2 (ssRNA) RNA: UUUGAUUAAUAUGAUAUCGUUCUUUCUCAAACACUAUAUAUUCUUUCUCGAUAUCAUAUUAAUCUUU,222
11,Id_i_S2_P3E.7_K3.3_C3.3_[T-3A]_[C-2T]_[T-1A]_H3.3_A3.1_F3.1_T3.2 (ssRNA) RNA: UUUGAUUAAUAUGAUAUCGUUCUUUCUAUAACACUAUAUAUUCUUUCUCGAUAUCAUAUUAAUCUUU,708
12,Id_i_S2_P3E.7_K3.3_C3.3_[T-3C]_[C-2A]_[T-1G]_H3.3_A3.1_F3.1_T3.2 (ssRNA) RNA: UUUGAUUAAUAUGAUAUCGUUCUUUCUCAGACACUAUAUAUUCUUUCUCGAUAUCAUAUUAAUCUUU,610
13,Id_i_S2_P3E.6_K3.2_C3.3_[T-3A]_[C-2G]_[T-1C]_H3.2_A3.1_F3.1_T3.2 (ssRNA) RNA: UUUGAUUAAUAUGAUAUCGUUCUUUCUAGCUAUAUAUAUAUUCUUUCUCGAUAUCAUAUUAAUCUUU,528
14,Id_i_S2_P3E.7_K3.3_C3.3_[T-3A]_[C-2G]_[T-1C]_H3.3_A3.1_F3.1_T3.2 (ssRNA) RNA: UUUGAUUAAUAUGAUAUCGUUCUUUCUAGCACACUAUAUAUUCUUUCUCGAUAUCAUAUUAAUCUUU,429
15,Id_i_S2_P3E.6_K3.2_C3.3_[T-3A]_[C-2A]_[T-1C]_H3.2_A3.1_F3.1_T3.2 (ssRNA) RNA: UUUGAUUAAUAUGAUAUCGUUCUUUCUAACUAUAUAUAUAUUCUUUCUCGAUAUCAUAUUAAUCUUU,105
16,Id_i_S2_P3E.7_K3.3_C3.3_[T-3C]_[C-2T]_[T-1A]_H3.3_A3.1_F3.1_T3.2 (ssRNA) RNA: UUUGAUUAAUAUGAUAUCGUUCUUUCUCUAACACUAUAUAUUCUUUCUCGAUAUCAUAUUAAUCUUU,214
17,Id_i_S2_P3E.7_K3.3_C3.3_[T-3C]_[C-2A]_[T-1C]_H3.3_A3.1_F3.1_T3.2 (ssRNA) RNA: UUUGAUUAAUAUGAUAUCGUUCUUUCUCACACACUAUAUAUUCUUUCUCGAUAUCAUAUUAAUCUUU,482
18,Id_i_S2_P3E.6_K3.2_C3.3_[T-3A]_[C-2T]_[T-1C]_H3.2_A3.1_F3.1_T3.2 (ssRNA) RNA: UUUGAUUAAUAUGAUAUCGUUCUUUCUAUCUAUAUAUAUAUUCUUUCUCGAUAUCAUAUUAAUCUUU,170
19,Id_i_S2_P3E.6_K3.2_C3.3_[T-3G]_[C-2G]_[T-1C]_H3.2_A3.1_F3.1_T3.2 (ssRNA) RNA: UUUGAUUAAUAUGAUAUCGUUCUUUCUGGCUAUAUAUAUAUUCUUUCUCGAUAUCAUAUUAAUCUUU,1300
20,Id_i_S2_P3E.7_K3.3_C3.3_[T-3G]_[C-2T]_[T-1A]_H3.3_A3.1_F3.1_T3.2 (ssRNA) RNA: UUUGAUUAAUAUGAUAUCGUUCUUUCUGUAACACUAUAUAUUCUUUCUCGAUAUCAUAUUAAUCUUU,5.76
21,Id_i_S2_P3E.5_K3.1_C3.3_[T-3A]_[C-2T]_[T-1C]_H3.1_A3.1_F3.1_T3.2 (ssRNA) RNA: UUUGAUUAAUAUGAUAUCGUUCUUUCUAUCUGUAUAUAUAUUCUUUCUCGAUAUCAUAUUAAUCUUU,1.7
22,UCUCUUCAUAUAUUAUCUCUU (ssRNA) [Ib_S1_P4E.1_K4.1_C4.1_H4.1_[T1C]_[G2A]_A4.1_F4.1_T4.1],487
23,ACAAACGGAACACUAUAUAACAAAC (ssRNA) [Id_i_S3_P3E.7_K3.3_C3.3_[T-3G]_[C-2G]_[T-1A]_H3.3_A3.1_F3.1_T3.2],1440
24,UCUCUUAAUAUAUUAUCUCUU (ssRNA) [Ib_S1_P4E.1_K4.1_C4.1_H4.1_[T1A]_[G2A]_A4.1_F4.1_T4.1],564

row,Binder,Kd [nM]
1,ACAAACAAGUAUAUAUAUAACAAAC (ssRNA) [Id_i_S3_P3E.6_K3.2_C3.3_[T-3A]_[C-2A]_[T-1G]_H3.2_A3.1_F3.1_T3.2],316
2,ACAAACAAUAUAUAUAUAACAAAC (ssRNA) [Id_ii_S3_P3E.3_K3.2_C3.2_[C-2A]_[T-1A]_H3.2_A3.1_F3.1_T3.2],531
3,UCUCUUUGUAUGUUAUCUCUU (ssRNA) [Ic_S1_P4E.1_K4.1_C4.1_H4.1_A4.1_[A6G]_F4.1_T4.1],4.82
4,ACAAACCUCUAUAUAUAUAACAAAC (ssRNA) [Id_i_S3_P3E.6_K3.2_C3.3_[T-3C]_[C-2T]_[T-1C]_H3.2_A3.1_F3.1_T3.2],219
5,ACAAACCGGUAUAUAUAUAACAAAC (ssRNA) [Id_i_S3_P3E.6_K3.2_C3.3_[T-3C]_[C-2G]_[T-1G]_H3.2_A3.1_F3.1_T3.2],1060
6,ACAAACAUAACACUAUAUAACAAAC (ssRNA) [Id_i_S3_P3E.7_K3.3_C3.3_[T-3A]_[C-2T]_[T-1A]_H3.3_A3.1_F3.1_T3.2],> 2300
7,ACAAACGGUAUAUAUAUAACAAAC (ssRNA) [Id_ii_S3_P3E.3_K3.2_C3.2_[C-2G]_[T-1G]_H3.2_A3.1_F3.1_T3.2],550
8,ACAAACGGCUAUAUAUAUAACAAAC (ssRNA) [Id_i_S3_P3E.6_K3.2_C3.3_[T-3G]_[C-2G]_[T-1C]_H3.2_A3.1_F3.1_T3.2],1360
9,ACAAACAGGUAUAUAUAUAACAAAC (ssRNA) [Id_i_S3_P3E.6_K3.2_C3.3_[T-3A]_[C-2G]_[T-1G]_H3.2_A3.1_F3.1_T3.2],566
10,ACAAACAGACACUAUAUAACAAAC (ssRNA) [Id_ii_S3_P3E.4_K3.3_C3.2_[C-2A]_[T-1G]_H3.3_A3.1_F3.1_T3.2],> 2300
11,ACAAACUCACACUAUAUAACAAAC (ssRNA) [Id_i_S3_P3E.4_K3.3_C3.2_[C-2T]_[T-1C]_H3.3_A3.1_F3.1_T3.2],> 2300
12,ACAAACCAAACACUAUAUAACAAAC (ssRNA) [Id_i_S3_P3E.7_K3.3_C3.3_[T-3C]_[C-2A]_[T-1A]_H3.3_A3.1_F3.1_T3.2],> 2300
13,UCUCUUAGCAUAUUAUCUCUU (ssRNA) [Ib_S1_P4E.1_K4.1_C4.1_H4.1_[T1A]_[T3C]_A4.1_F4.1_T4.1],1930
14,ACAAACAGUAUAUAUAUAACAAAC (ssRNA) [Id_i_S3_P3E.3_K3.2_C3.2_[C-2A]_[T-1G]_H3.2_A3.1_F3.1_T3.2],385
15,ACAAACGCACACUAUAUAACAAAC (ssRNA) [Id_ii_S3_P3E.4_K3.3_C3.2_[C-2G]_[T-1C]_H3.3_A3.1_F3.1_T3.2],1830
16,Id_i_S4_P3E.2_K3.1_C3.2_[C-2T]_[T-1G]_H3.1_A3.1_F3.1_T3.2 (ssRNA) RNA: UUUGACAACUGAUCGUUCUUUCUUGUGUAUAUAUAUUCUUUCUCGAUCAGUUGUCUUU,1.47
17,Id_ii_S4_P3E.4_K3.3_C3.2_[C-2G]_[T-1C]_H3.3_A3.1_F3.1_T3.2 (ssRNA) RNA: UUUGACAACUGAUCGUUCUUUCUGCACACUAUAUAUUCUUUCUCGAUCAGUUGUCUUU,30.3
18,Id_i_S4_P3E.3_K3.2_C3.2_[C-2T]_[T-1C]_H3.2_A3.1_F3.1_T3.2 (ssRNA) RNA: UUUGACAACUGAUCGUUCUUUCUUCUAUAUAUAUAUUCUUUCUCGAUCAGUUGUCUUU,68.1
19,Id_i_S4_P3E.4_K3.3_C3.2_[C-2T]_[T-1C]_H3.3_A3.1_F3.1_T3.2 (ssRNA) RNA: UUUGACAACUGAUCGUUCUUUCUUCACACUAUAUAUUCUUUCUCGAUCAGUUGUCUUU,202
20,Id_i_S4_P3E.3_K3.2_C3.2_[C-2T]_[T-1G]_H3.2_A3.1_F3.1_T3.2 (ssRNA) RNA: UUUGACAACUGAUCGUUCUUUCUUGUAUAUAUAUAUUCUUUCUCGAUCAGUUGUCUUU,4.75
21,Id_i_S4_P3E.2_K3.1_C3.2_[C-2T]_[T-1A]_H3.1_A3.1_F3.1_T3.2 (ssRNA) RNA: UUUGACAACUGAUCGUUCUUUCUUAUGUAUAUAUAUUCUUUCUCGAUCAGUUGUCUUU,4.77
22,Id_i_S4_P3E.2_K3.1_C3.2_[C-2T]_[T-1C]_H3.1_A3.1_F3.1_T3.2 (ssRNA) RNA: UUUGACAACUGAUCGUUCUUUCUUCUGUAUAUAUAUUCUUUCUCGAUCAGUUGUCUUU,0.82
23,ACAAACAUCACACUAUAUAACAAAC (ssRNA) [Id_i_S3_P3E.7_K3.3_C3.3_[T-3A]_[C-2T]_[T-1C]_H3.3_A3.1_F3.1_T3.2],2250
24,ACAAACACACACUAUAUAACAAAC (ssRNA) [Id_i_S3_P3E.4_K3.3_C3.2_[C-2A]_[T-1C]_H3.3_A3.1_F3.1_T3.2],> 2300
